Data reported in paper PMC8906792 (eNeuro, 2022).

Target: the molecule itself
Assay: native gel or EMSA; NativePAGE 3-12% Bis-Tris gel, 7.5 ug of recombinant protein per lane; oligomer profile from <480 to 1236 kDa, median size read against markers

Protein | binding result
recombinant human αA-crystallin T148D (phosphomimetic) (natural protein, UniProt P02489 1-173, looked up) MDVTIQHPWFKRTLGPFYPSRLFDQFFGEGLFEYDLLPFLSSTISPYYRQSLFRTVLDSGISEVRSDRDKFVIFLDVKHFSPEDLTVKVQDDFVEIHGKHNERQDDHGYISREFHRRYRLPSNVDQSALSCSLSADGMLTFCGPKIQDGLDATHAERAIPVSREEKPTSAPSS | binds
recombinant human αA-crystallin T148A (nonphosphorylatable) (natural protein, UniProt P02489 1-173, looked up) MDVTIQHPWFKRTLGPFYPSRLFDQFFGEGLFEYDLLPFLSSTISPYYRQSLFRTVLDSGISEVRSDRDKFVIFLDVKHFSPEDLTVKVQDDFVEIHGKHNERQDDHGYISREFHRRYRLPSNVDQSALSCSLSADGMLTFCGPKIQAGLDATHAERAIPVSREEKPTSAPSS | binds
